Experimental data: PMC3626704 (BMC Biochemistry, 2013)

What was measured:
[1] = biological target: T1, 5-Helix (HIV-1 group M subtype B, HXB2 (gp41 …, stabilised)); assay: ELISA; details: both partners purified
T1 construct: also called designed protein based on HIV-1 gp41

[2] = biological target: T2, 6-Helix-Fd (HIV-1 gp41 (HXB2-like, printed sequence), stabilised); assay: ELISA; details: both partners purified
T2 construct: also called post-fusion six-helix bundle mimic
T2 chain: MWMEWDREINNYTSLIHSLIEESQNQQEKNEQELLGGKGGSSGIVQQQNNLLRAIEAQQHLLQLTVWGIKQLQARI

| Binder | IC50 [1] | IC50 [2] |
| --- | --- | --- |
| D5 scFv, purified monovalent (scFv, V domains shown) VH: QVQLVQSGAEVRKPGASVKVSCKASGDTFSSYAISWVRQAPGQGLEWMGGIIPIFGTANYAQAFQGRVTITANESTSTAYMELSSLRSEDTAIYYCARDNPTLLGSDYWGAGTLVTVSS VL: DIQMTQSPSTLSASIGDRVTITCRASEGIYHWLAWYQQKPGKAPKLLIYKASSLASGAPSRFSGSGSGTDFTLTISSLQPDDFATYYCQQYSNYPLTFGGGTKLEIK | 7.3 nM | 290 nM |
| 25A10 scFv, purified monovalent (scFv, V domains shown) VH: QVQLVQSGAEVRKPGASVKVSCKASGDTFSSYAISWVRQAPGQGLEWMGGIIPIFGTANYAQAFQGRVTITANESTSTAYMELSSLRSEDTAIYYCARDNPTLLGSDYWGAGTLVTVSS VL: DIQMTQSPSTLSASIGDRVTITCRASESISHNLAWYQQKPGKAPKLLISNASRLASGAPSRFSGSGSGTDFTLTISSLQPDDFATYYCQQYSNYPLTFGGGTKLEIK | 5.4 nM | ~500 nM |
| 25A12 scFv, purified monovalent (scFv, V domains shown) VH: QVQLVQSGAEVRKPGASVKVSCKASGDTFSSYAISWVRQAPGQGLEWMGGIIPIFGTANYAQAFQGRVTITANESTSTAYMELSSLRSEDTAIYYCARDNPTLLGSDYWGAGTLVTVSS VL: DIQMTQSPSTLSASIGDRVTITCRASEGIHRYLAWYQQKPGKAPKLLIYHASRLASGAPSRFSGSGSGTDFTLTISSLQPDDFATYYCQQRANYPYTFGGGTKLEIK | 34 nM | 280 nM |
| 25B6 scFv, purified monovalent (scFv, V domains shown) VH: QVQLVQSGAEVRKPGASVKVSCKASGDTFSSYAISWVRQAPGQGLEWMGGIIPIFGTANYAQAFQGRVTITANESTSTAYMELSSLRSEDTAIYYCARDNPTLLGSDYWGAGTLVTVSS VL: DIQMTQSPSTLSASIGDRVTITCRASENIRSGLAWYQQKPGKAPKLLIYRASRLASGAPSRFSGSGSGTDFTLTISSLQPDDFATYYCQQYDDYPHTFGGGTKLEIK | 0.6 nM | 94 nM |
